# Numbering of substitutions follows the chain as printed.
# T1: human FcgRIIa type R extracellular domain (human, UniProt P12318 34-217)
# T1 construct: extracellular domain; also called hFcgRIIaR
# T1 sequence (looked up): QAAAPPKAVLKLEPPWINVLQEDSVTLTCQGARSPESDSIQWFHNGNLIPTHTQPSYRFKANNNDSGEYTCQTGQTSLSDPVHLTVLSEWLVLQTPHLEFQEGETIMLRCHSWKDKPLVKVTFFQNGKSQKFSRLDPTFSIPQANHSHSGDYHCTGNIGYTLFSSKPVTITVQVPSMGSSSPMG
# T2: human FcgRIIb extracellular domain (human, UniProt P31994 43-217)
# T2 construct: extracellular domain; also called hFcgRIIb
# T2 sequence (looked up): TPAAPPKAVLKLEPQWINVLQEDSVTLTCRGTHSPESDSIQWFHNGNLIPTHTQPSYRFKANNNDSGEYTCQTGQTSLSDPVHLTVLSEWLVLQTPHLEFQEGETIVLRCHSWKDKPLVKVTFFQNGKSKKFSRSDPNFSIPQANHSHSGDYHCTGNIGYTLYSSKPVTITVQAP
# T3: human FcgRIIa type H extracellular domain (human, UniProt P12318 34-217)
# T3 construct: extracellular domain; also called hFcgRIIaH
# T3 sequence (looked up): T1 sequence (looked up) with R134H
# B1: dBBAT053-P253 (antibody, human IgG1, lambda, V domains shown)
# VH: EVQLVESGGDLVKPGGGLRLSCAASGFTFSTFTMNWVRQAPGKGLEWVSSISSRSNYIYYADSVKGRFTISRDNAKNSLYLQMNSLRAEDTAVYYCARFGLKNEMNWVFDYWGQGTLVTVSS
# VL: QSALTQPPSASGSPGQTVTISCTGTSSDVGFYNYVSWYQQHPGKAPKLMIYEGSKKPSGVPDRFSGSKSGNTASLTVSGLQAEDEADYFCSVYSYIYYVLFGGGTKLTVLG
# B2: dBBAT007-P253 (antibody, human IgG1, lambda, V domains shown)
# VH: B1 VH with T31G, F32Y, I58A, Y59H, E104F
# VL: B1 VL with E52G, G53T, K56R, V92S, S94A, I96D, Y97A, Y98Q, V99L, L100V
# B3: dBBAT015-P253 (antibody, human IgG1, lambda, V domains shown)
# VH: B1 VH with F32Y, N56T, I58A, Y59T, F99Y, E104S, M105L
# VL: B1 VL with S27T, G53V, V92T, I96D, Y97E, Y98S, L100A
# B4: dBBAT134-P253 (antibody, human IgG1, lambda, V domains shown)
# VH: B1 VH with T31S, F32Y, I58A, Y59D, F99Y, L101A
# VL: B1 VL with S27T, G53V, K56R, V92S, S94T, I96D, Y97Q, Y98Q, V99L, L100M
# B5: A375-SCF060a/B167-Lamlib (antibody, human IgG1, lambda)
# heavy: EVQLVESGGGLVKPGGSLRLSCAASGFTFSTFTMNWVRQAPGKGLEWVSSISSKSTYIEYADSFKVRFTISRDNAKNSLYLQMNSLRAEDTAVYYCARYGAKNFLNWVFDYWGQGTLVTVSSASTKGPSVFPLAPSSKSTSGGTAALGCLVKDYFPEPVTVSWNSGALTSGVHTFPAVLQSSGLYSLSSVVTVPSSSLGTQTYICNVNHKPSNTKVDKRVEPKSCDKTHTCPPCPAPELWNGPSVFLFPPKPKDTLMISRTPEVTCVVVDVSDEDPEVKFNWYVDGVEVHNAKTKPREELYNSTYRVVSVLTVLHRDWLNGKEYKCKVSNTALPKPIEKTISKAKGQPREPQVYTLPPSREEMTKNQVSLTCLVKGFYPSDIAVEWESNGQPENNYKTTPPVLDSDGSFFLYSKLTVDKSRWQQGNVFSCSVMHEALHNHYTQKSLSLSP
# light: QSALTQPPSASGSPGQTVTISCTGTRYDVGYYEYVSWYQQHPGKAPKLMIYETSKRLSGVPDRFSGSKSGNTASLTVSGLQAEDEADYYCSSYRYEHQVSFGGGTKLTVLGQPKAAPSVTLFPPSSEELQANKATLVCLISDFYPGAVTVAWKADSSPVKAGVETTTPSKQSNNKYAASSYLSLTPEQWKSHRSYSCQVTHEGSTVEKTVAPTECS
# notes: copies: 2 + 2
# B6: A375-TT16/B167-Lamlib (antibody, human IgG1, lambda)
# heavy: EVQLVESGGGLVKPGGSLRLSCAASGFTFSTFTMNWVRQAPGKGLEWVSSISSKSTYIEYADSFKVRFTISRDNAKNSLYLQMNSLRAEDTAVYYCARYGAKNFLNWVFDYWGQGTLVTVSSASTKGPSVFPLAPSSKSTSGGTAALGCLVKDYFPEPVTVSWNSGALTSGVHTFPAVLQSSGLYSLSSVVTVPSSSLGTQTYICNVNHKPSNTKVDKKVEPKSCDKTHTCPPCPAPEYLGDDSVFLFPPKPKDVLMISRTPEVTCVVVDVSHEDPEVKFNWYVDGVEVHNAKTKPREEQYNSTYRVVSVLPVLHQDWLNGKEYKCKVSNKALPKPIEKTISKAKGQPREPQVYTLPPSREEMTKNQVSLTCLVKGFYPSDIAVEWESNGQPENNYKTTPPVLDSDGSFFLYSKLTVDKSRWQQGNVFSCSVMHEALHNHYTQKSLSLSP
# light: B5 light
# notes: copies: 2 + 2
# B7: A375-TT14/B167-Lamlib (antibody, human IgG1, lambda)
# heavy: B6 heavy with D242G, V269I
# light: B5 light
# notes: copies: 2 + 2
# Molecular target: T4, biotinylated Fc-fused monkey CD137 (monkey, biotin on the AviTag)
# T4 construct: also called cyCD137-Fc-BAP
# Experiment: ELISA, 1 mM ADP, 0.039 ug/mL
# Design: reference not given here
# Experimental: (§1) The obtained antibodies were evaluated for binding to monkey CD137 by ELISA. The cyCD137-Fc-BAP prepared in Reference Example 1 was immobilized on Streptawell microtiter plates. After the unbound antigen was removed from the plates by washing each well of the plates with the wash buffer, the wells were blocked with 150 μL of a blocking buffer (TBS with 2% BSA) for 1 hour or more. The blocking buffer was removed from each well, and 100 μL of the purified antibodies diluted in TBS with a final concentration of 1 mM ADP, or TBS with a final concentration 1 mM ADP was added to each well. The plate to which the antibody was added was shaken at 600 rpm for 1 hour. The AP-conjugated anti-human lambda antibodies (BETHYL) diluted in TBS with a final concentration of 1 mM ADP were added to each well after washing with a wash buffer (TBS with 0.1% Tween20) containing a final concentration of 1 mM ADP. After incubation for one hour and washing with a wash buffer containing a final concentration of 1 mM […], BluePhos phosphate substrate (KPL) was added. Color development was measured by absorbance at 600 nm. Samples with a concentration-dependent increase in the absorbance ratio can be said to be bound to monkey CD137.
# T4 sequence (chain, as listed by the source limits assumed): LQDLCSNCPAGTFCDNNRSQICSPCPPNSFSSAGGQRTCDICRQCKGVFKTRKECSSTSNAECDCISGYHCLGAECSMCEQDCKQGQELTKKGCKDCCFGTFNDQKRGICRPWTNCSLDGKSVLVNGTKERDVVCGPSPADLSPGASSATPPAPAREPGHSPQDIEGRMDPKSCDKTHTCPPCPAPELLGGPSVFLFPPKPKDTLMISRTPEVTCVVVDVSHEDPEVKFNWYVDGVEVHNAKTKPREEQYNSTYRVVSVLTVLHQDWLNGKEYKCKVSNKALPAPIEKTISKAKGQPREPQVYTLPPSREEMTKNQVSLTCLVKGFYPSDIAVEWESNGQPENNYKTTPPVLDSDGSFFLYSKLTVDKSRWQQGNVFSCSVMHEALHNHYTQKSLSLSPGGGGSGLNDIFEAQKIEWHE
row,Binder,absorbance ratio
1,B1,0.7
2,B2,0.7
3,B3,1.5
4,B4,1.2

# Molecular target: T1, human FcgRIIa type R extracellular …
# Experiment: SPR 25C
Binder,binding per 1RU antibody [RU],relative binding (A375-G1T3/B167-Lamlib=1)
B5,0.0459,0.99
B6,0.0359,0.77
B7,0.0067,0.14

# Molecular target: T5, human FcgRIa extracellular domain (human, UniProt P12314 16-292)
# T5 construct: extracellular domain; also called hFcgRIa
# Experiment: SPR 25C
# T5 sequence (P12314 16-292): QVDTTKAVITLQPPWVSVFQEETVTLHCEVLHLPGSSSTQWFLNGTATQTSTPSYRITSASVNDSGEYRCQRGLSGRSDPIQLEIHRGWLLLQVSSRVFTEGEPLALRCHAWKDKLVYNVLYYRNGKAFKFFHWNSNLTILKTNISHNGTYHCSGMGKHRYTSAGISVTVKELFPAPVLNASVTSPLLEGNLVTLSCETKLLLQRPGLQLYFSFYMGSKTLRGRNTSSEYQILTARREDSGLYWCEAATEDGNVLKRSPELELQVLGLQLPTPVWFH
Binder,binding per 1RU antibody [RU],relative binding (A375-G1T3/B167-Lamlib=1)
B5,0.0021,0.03
B6,0.0034,0.04
B7,0.0045,0.05

# Molecular target: T6, human FcgRIIIa F158 extracellular domain (human, UniProt P08637 17-208)
# T6 construct: extracellular domain; also called hFcgRIIIaF
# Experiment: SPR 25C
# T6 sequence (P08637 17-208): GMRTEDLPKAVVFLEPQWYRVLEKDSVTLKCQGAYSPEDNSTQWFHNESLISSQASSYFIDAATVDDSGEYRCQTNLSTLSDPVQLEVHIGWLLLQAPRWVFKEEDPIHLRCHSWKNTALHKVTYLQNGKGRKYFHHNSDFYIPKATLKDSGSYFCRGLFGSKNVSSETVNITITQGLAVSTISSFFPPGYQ
Binder,binding per 1RU antibody [RU],relative binding (A375-G1T3/B167-Lamlib=1)
B5,0.0011,0.05
B6,0.0001,0
B7,0,0

# Molecular target: T2, human FcgRIIb extracellular domain
# Experiment: SPR 25C
Binder,binding per 1RU antibody [RU],relative binding (A375-G1T3/B167-Lamlib=1)
B5,0.0472,4.31
B6,0.109,9.94
B7,0.0805,7.34

# Molecular target: T3, human FcgRIIa type H extracellular …
# Experiment: SPR 25C
Binder,binding per 1RU antibody [RU],relative binding (A375-G1T3/B167-Lamlib=1)
B5,0.0463,0.82
B6,0.0126,0.22
B7,0.0042,0.07

# Molecular target: T7, human FcgRIIIa V158 extracellular domain (human, UniProt P08637 17-208)
# T7 construct: extracellular domain; also called hFcgRIIIaV
# Experiment: SPR 25C
# T7 sequence (P08637 17-208 F176V): as the sequence (P08637 17-208) above, with F160V counted along it
Binder,binding per 1RU antibody [RU],relative binding (A375-G1T3/B167-Lamlib=1)
B5,0.0008,0.01
B6,-0.0002,0
B7,0.0003,0

# Molecular target: T4, biotinylated Fc-fused monkey CD137
# Experiment: ELISA, 1 mM ADP, 0.010 ug/mL
# Design: reference not given here
# Experimental: as §1
row,Binder,absorbance ratio
1,B1,0.8
2,B2,3.8
3,B3,1.1
4,B4,1

# Molecular target: human FcRn (human, UniProt P55899 24-290; P61769 21-119)
# Experiment: SPR 25C pH 6.0, steady state
# In short: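 Antibody (~400 RU) captured on anti-Fab-lambda sensor chip, human FcRn injected as analyte.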
# Sequence of human FcRn (P55899 24-290 limits assumed, chain 1 of 2): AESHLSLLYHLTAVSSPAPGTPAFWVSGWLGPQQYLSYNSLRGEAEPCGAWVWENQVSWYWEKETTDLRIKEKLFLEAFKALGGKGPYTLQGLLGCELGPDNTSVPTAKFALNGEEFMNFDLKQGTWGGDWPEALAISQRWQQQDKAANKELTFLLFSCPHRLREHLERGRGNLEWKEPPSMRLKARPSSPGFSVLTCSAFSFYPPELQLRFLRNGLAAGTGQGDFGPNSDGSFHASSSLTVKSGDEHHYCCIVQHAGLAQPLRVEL
# Sequence of human FcRn (P61769 21-119 limits assumed, chain 2 of 2): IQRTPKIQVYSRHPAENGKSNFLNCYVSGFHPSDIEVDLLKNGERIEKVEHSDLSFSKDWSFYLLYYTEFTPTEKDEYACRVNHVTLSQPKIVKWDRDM
row,Binder,Kd [nM]
1,B5,1010
2,B6,1510
3,B7,1770

# Molecular target: T4, biotinylated Fc-fused monkey CD137
# Experiment: ELISA, 1 mM ADP, 10 ug/mL
# Design: reference not given here
# Experimental: as §1
row,Binder,absorbance ratio
1,B1,17.9
2,B2,30.5
3,B3,42.9
4,B4,33.9

# Molecular target: T4, biotinylated Fc-fused monkey CD137
# Experiment: ELISA, 1 mM ADP, 0.156 ug/mL
# Design: reference not given here
# Experimental: as §1
row,Binder,absorbance ratio
1,B1,1
2,B2,22
3,B3,3.6
4,B4,2.2

# Molecular target: T4, biotinylated Fc-fused monkey CD137
# Experiment: ELISA, 1 mM ADP, 0.625 ug/mL
# Design: reference not given here
# Experimental: as §1
row,Binder,absorbance ratio
1,B1,2.3
2,B2,29.2
3,B3,14.4
4,B4,5.8

# Molecular target: T4, biotinylated Fc-fused monkey CD137
# Experiment: ELISA, 1 mM ADP, 2.5 ug/mL
# Design: reference not given here
# Experimental: as §1
row,Binder,absorbance ratio
1,B1,6.9
2,B2,30.2
3,B3,32.4
4,B4,16.8
